Data published in paper PMC6508567.

Columns and labels:
[1] = target: serpin Z4 (barley (Hordeum vulgare) cv. Harrington) (UniProt P06293); assay: MST; serpin Z4 labelled with an NHS-ester fluorescent dye (70 nM), unlabelled β-amylase from 16 μM to 0.5 nM; PBS with 0.1% Tween-20; Monolith NT.115; three replicates combined
[2] = target: serpin Z4 (barley (Hordeum vulgare) cv. Harrington) (UniProt P06293); assay: SPR; serpin Z4 immobilised by amine coupling on a CM5 chip, β-amylase injected at 2, 0.9, 0.4, 0.2 and 0.1 μM; PBS; Biacore T200

serpin Z4 (barley (Hordeum vulgare) cv. Harrington), sequence (P06293 whole entry): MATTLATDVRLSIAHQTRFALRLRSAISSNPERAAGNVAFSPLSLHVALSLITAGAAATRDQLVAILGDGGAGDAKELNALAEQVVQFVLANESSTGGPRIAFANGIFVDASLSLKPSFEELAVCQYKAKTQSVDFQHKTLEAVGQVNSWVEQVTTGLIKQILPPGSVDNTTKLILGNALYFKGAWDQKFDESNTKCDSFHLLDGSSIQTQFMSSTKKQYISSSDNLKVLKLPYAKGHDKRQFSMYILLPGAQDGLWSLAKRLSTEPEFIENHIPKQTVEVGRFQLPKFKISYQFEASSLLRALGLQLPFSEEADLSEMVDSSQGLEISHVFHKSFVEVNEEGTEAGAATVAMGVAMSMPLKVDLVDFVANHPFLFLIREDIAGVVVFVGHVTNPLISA

In the case of “β-amylase WT (from UniProt P16098 1-535) (enzyme)”, the Kd [1] is reported as 100 nM and the Kd [2] is reported as 316 nM.
